Reference: PMC2865256 (Journal of immunology (Baltimore, Md. : 1950), 2009)

Biological target: T1, mouse HVEM on splenic T cells (mouse (endogenous in splenic T cells), UniProt Q80WM9 39-275)
T1 sequence (looked up): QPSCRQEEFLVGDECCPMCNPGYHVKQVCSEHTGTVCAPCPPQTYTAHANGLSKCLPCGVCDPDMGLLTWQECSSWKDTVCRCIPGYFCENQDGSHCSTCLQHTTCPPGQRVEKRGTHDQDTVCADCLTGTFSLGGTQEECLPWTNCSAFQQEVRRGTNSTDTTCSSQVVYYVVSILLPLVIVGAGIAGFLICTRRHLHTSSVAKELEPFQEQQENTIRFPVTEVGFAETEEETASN
Test: flow cytometry on cells

MFI ratio of Btla-/- T cells to WT T cells: 4.4
B1: mouse BTLA-Fc (Fc fusion, UniProt Q7TSA3 30-183, looked up)
chain: EKATKRNDEECPVQLTITRNSKQSARTGELFKIQCPVKYCVHRPNVTWCKHNGTICVPLEVSPQLYTSWEENQSVPVFVLHFKPIHLSDNGSYSCSTNFNSQVINSHSVTIHVRERTQNSSEHPLITVSDIPDATNASGPSTMEERPGRTWLLY
